Results taken from patent US20220002363A1, “COMPOSITIONS AND METHODS FOR TREATING PULMONARY DISEASE” (United States Government As Represented By The Department …, priority 2020, published 2022).
Changes are numbered by the printed parent chain. Where a SMILES comes first, the peptide text is derived from it. The star is where a group is joined. Cbz = O=C(OCc1ccccc1)*; CH2F = FC*

What was measured:
[1] = test system: HPAEpiC; settings: cited from earlier work
[2] = test system: LA4 monolayer; settings: LA4 cells; cited from earlier work
[3] = target: T1, biotinylated WT-sFasL (human, UniProt P48023 103-281, biotinylated with EZ-Link Sulfo-NHS-LC-Biotin (sites not given)); test: mixture captured on streptavidin-coated wells, detected with HRP anti-FLAG antibody
T1 construct: range 103-281; Same protein as WT-sFasL, chemically biotinylated; also called biotinylated wild type sFasL
T1 sequence (looked up): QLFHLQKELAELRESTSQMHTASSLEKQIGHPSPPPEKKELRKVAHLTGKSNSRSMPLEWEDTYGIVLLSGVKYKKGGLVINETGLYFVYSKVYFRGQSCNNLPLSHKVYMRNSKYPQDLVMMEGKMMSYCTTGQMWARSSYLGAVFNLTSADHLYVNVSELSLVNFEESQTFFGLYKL
Method: (§1) Serial 3-fold dilutions of FLAG tagged mut-sFasL were mixed with biotinylated WT sFasL (60 ng). The mixtures were incubated at room temperature for 15 minutes and applied to streptavidin-coated wells. FLAG tags were detected with HRP anti-FLAG mAb. There was a dose-dependent increase in FLAG signal in wells incubated with the biotinylated WT sFasL+ and the mut-sFasL-FLAG mixture, showing the formation of complexes of WT and mut-sFasL. […] Data shown as ratio of the absorbance at 450 nm of each experimental condition to that of media only. Data were generated from three separate experiments, each done in duplicate, and were analyzed by 2-way ANOVA with Dunnet's post hoc analysis; comparisons were made to 0 ng/mL for each condition. Each dot represents individual data, lines represent means±SD. *=P<0.05; **=P<0.01, ***P<0.001.
The mut-sFasL forms complexes with WT sFasL. In order to be active, sFasL must form trimers or higher order multimers. Therefore, it was tested whether the mut-sFasL forms complexes with WT-sFasL. The mixture was incubated in streptavidin-coated well to capture the biotinylated WT-sFasL. After washing unbound material, FLAG was detected using an anti-FLAG antibody, which would detect FLAG-tagged mut-sFasL complexed with biotinylated WT-sFasL. […]

[4] = test system: biotinylated WT sFasL; test: Complex formation of FLAG tagged mut-sFasL with biotinylated WT sFasL on streptavidin-coated wells; assay type: binding, human; settings: FLAG-tagged mut-sFasL by itself
Method: as §1, with “mAb.” for “mAb. There was a dose-dependent increase in FLAG signal in wells incubated with the biotinylated WT sFasL+ and the mut-sFasL-FLAG mixture, showing the formation of complexes of WT and mut-sFasL.”
(§2) Antibodies and Reagents. To prepare immunoaffinity columns, mouse monoclonal anti-human FasL antibodies, clone 100419 (R&D System, Cat #MAB126, RRID:AB 2246667, Minneapolis, Minn.), were used. For the Fas-FasL binding assay, recombinant human soluble Fas receptors (PeproTech, Rocky Hill, N.J.) and biotinylated goat anti-human FasL antibodies (PeproTech Cat #500-P184bt-50 ug, RRID:AB 148184) were used. Mouse anti-human Fas (CD95) monoclonal IgM antibody, clone CH-11 and its isotype control antibody, clone 3D12, were obtained from MBL, Nagoya, Japan (MBL International Cat #SY-001, RRID:AB 591016 and Cat #M077-3, RRID:AB 593057, respectively). FLAG tagged mut-sFasL was detected using HRP anti-FLAG monoclonal antibody (Sigma-Aldrich, Cat #A85920). Unless otherwise indicated, the other chemicals were purchased from Sigma-Aldrich (St. Louis, Mo.).
(§3) Biotinylation of sFasL. Immunoaffinity purified WT-sFasL was biotinylated with No-Weight Format EZ-Link Sulfo-NHS-LC-Biotin (Pierce, Rockford, Ill., Cat #21327) following the manufacturer's instructions. To capture biotinylated WT-sFasL in the mixtures of biotinylated WT-sFasL and mut-sFasL-FLAG, Streptavidin-variant (Strep-Tactin XT) coated 96-well plates (iba, Gottingen, Germany, Cat #2-4101-001) were used.
(§4) The mut-sFasL forms complexes with WT sFasL. […] After washing unbound material, FLAG was detected using an anti-FLAG antibody, which would detect FLAG-tagged mut-sFasL complexed with biotinylated WT-sFasL.

[5] = target: T2, biotinylated WT sFasL (Homo sapiens, UniProt P48023); test: as above; assay type: binding; settings: fixed biotinylated WT sFasL (60 ng), increasing FLAG-tagged mut-sFasL
T2 construct: biotin (chemical label, EZ-Link Sulfo-NHS-LC-Biotin); made in house; host or cells: FreeStyle 293-F cells
T2 sequence (P48023 103-281): T1 sequence (looked up)
Method: as §1, with “mAb.” for “mAb. There was a dose-dependent increase in FLAG signal in wells incubated with the biotinylated WT sFasL+ and the mut-sFasL-FLAG mixture, showing the formation of complexes of WT and mut-sFasL.”
as §2, §3, §4

[6] = target: T3, recombinant human Fas (Homo sapiens, UniProt P25445); test: Competition assay: binding of biotinylated WT sFasL to plate-coated recombinant human Fas; settings: biotinylated WT-sFasL 70 ng/mL, Fas coated at 250 ng/mL, serial 3-fold dilutions
T3 construct: recombinant human soluble Fas receptors (PeproTech, Rocky Hill, N.J.); purchased PeproTech
T3 sequence (P25445 26-173 limits assumed): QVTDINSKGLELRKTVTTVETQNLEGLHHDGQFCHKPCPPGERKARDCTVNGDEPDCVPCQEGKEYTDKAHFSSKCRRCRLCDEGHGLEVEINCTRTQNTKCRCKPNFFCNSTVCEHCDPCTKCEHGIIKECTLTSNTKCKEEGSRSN
Method: The mixtures were incubated for 2 hours in 96-well plates pre-coated with recombinant hsFas (250 ng/ml). After washing unbound material, biotin was detected using HRP conjugated Streptavidin. […] The sFasL bound to Fas was detected using polyclonal anti-human FasL antibodies. […] Different molar ratios of the Fas-activating antibody CH-11 and mut-sFasL were added, and caspase 3/7 activity measured after 5 hours. […] Data represent the results from three separate experiments, each done in duplicate, and were analyzed by 2-way ANOVA with Sidak's post hoc analysis. […] Each dot represents individual data; lines represent means±SD. *=P<0.05; **=P<0.01, ***P<0.001.
Antibodies and Reagents. […] FLAG tagged mut-sFasL was detected using HRP anti-FLAG monoclonal antibody (Sigma-Aldrich, Cat #A85920). […]
WT-sFasL inhibition occurs prior to receptor binding. […] Recombinant human Fas at 250 ng/mL were coated and the binding of a fixed concentration of biotinylated WT-sFasL (70 ng/mL) were measured in the presence of serial 3-fold dilutions of either WT-sFasL or mut-sFasL. […] Serial dilutions of either WT-sFasL or mut-sFasL were incubated in wells coated with recombinant human Fas, 5 μg/mL, and after washing, detected sFasL bound to Fas using polyclonal anti-FasL antibodies. […]

For `COC(=O)CC[C@H](NC(=O)[C@H](CC(=O)OC)NC(=O)OCc1ccccc1)C(=O)N[C@H](C(=O)N[C@@H](CC(=O)OC)C(=O)CF)C(C)C` [zDEVD.fmk, reference compound], the “reversal of sFasL effect on monolayer permeability and ZO-1/occludin expression” value ([1]; HPAEpiC, pretreatment) is listed as “reversed the effect of sFasL on HPAEpiC monolayer permeability and ZO-1/occludin expression”.

For `CC(NC(=O)C(NC(=O)OCc1ccccc1)C(C)C)C(=O)NC(CC(=O)O)C(=O)CF` (stereo not drawn) [zVAD] (Cbz-Val-Ala-Asp-CH2F; configuration not given here), the “reversal of cell death and monolayer permeability induced by Jo2” value [2] is given as “reversed cell death and monolayer permeability induced by Jo2”.

B1: FLAG tagged mut-sFasL (ligand, human, UniProt P48023 103-281, looked up)
chain: T1 sequence (looked up) with H4A, K7A, E8A, E11A, R13A, E14A, H20A, E26A
notes: range 103-281; C-terminal FLAG tag; also called mut-sFasL-FLAG; 8-mut sFasL-FLAG; not shown: FLAG tag fused in frame after amino acid 281
B1: binds [3].

B2: mut-sFasL-FLAG: 8-mut sFasL with FLAG tag at the 3′-end of the 281th amino acid coding sequence (protein)
chain: T1 sequence (looked up) with H4A, K7A, E8A, E11A, R13A, E14A, H20A, E26A
modifications: left off: small tags and cut ends
In the case of B2, the “binding to streptavidin-coated plate without biotinylated WT sFasL” value [4] is reported as “did not bind to the streptavidin-coated plates”, the “binding to streptavidin-coated plate without biotinylated WT sFasL” value ([4]; listed as FLAG-tagged mut-sFasL) is reported as “did not bind to the plate, even at high concentrations” and the “FLAG signal (complexes with WT sFasL)” value [5] is reported as “dose-dependent increase in FLAG signal”.

B3: WT-sFasL: wild type human soluble Fas ligand, amino acids 103 to 281, expressed in FreeStyle 293-F cells (protein, UniProt P48023 103-281, looked up, fragment)
chain: T1 sequence (looked up)
For B3, the “effect of increasing competitor concentration on binding of biotinylated WT-sFasL to Fas” value [6] is listed as “binding of biotinylated WT-sFasL to Fas decreased” and the “caspase 3 induction” value ([1]; HPAEpiC exposed to long form of sFasL) is listed as “induced caspase 3”.
